Substitutions are numbered along the chain they refer to.
B1: ADI-18888 (antibody, V domains shown)
VH: QVQLVESGGGVVQPGRSLRLSCVASGFSFSMHGMHWVRQAPGKGLEWVTAIWYDGSNKYYADSVKGRFTISRDNSRNTLYLQMNSLRAEDTAVYYCARDHASTPYYMDVWGKGTTVTVSS
VL: ETTLTQSPGTLSLSPGESATLSCRTSQRISSTYLAWYRQKPGQAPRLLMYGASSRATGIPDRFSGSGSGTDFTLTISSLEPEDFALYYCQQYGSFPWTFGQGTKLEIK
notes: full-length IgG from yeast; also called Antibody Number 243; Ab # 243
B2: ADI-18906 (antibody, V domains shown)
VH: B1 VH with Q1E
VL: B1 VL with L105V
notes: full-length IgG from yeast
B3: ADI-19005 (antibody, V domains shown)
VH: QVQLVQSGAEVKKPGASVRVSCKASGYTFTDYFMNWVRQAPGGGLEWMGWINPLSGVTKYAQQFQGSVTMTTDTSITTGYMELRSLRVDDTAVYYCASQSSPYTPGAMGVWGQGTTVTVSS
VL: DIRMTQSPSSLSASVGDRVTITCRTSQSVSGYLSWYQQKPGKAPKLLIYAASNLYSGVPSRFSGSGSGTDFTLTITSLQPEDFATYFCQLNSGALFTFGPGTKVEIK
B4: ADI-19017 (antibody, V domains shown)
VH: B3 VH with S21T
VL: SYELIQLPSVSVSPGQTARITCSGDALPKQYAYWYQQKPGQAPVLVIYKDSERPSGIPERFSGSSSGTTVTLTISGVQAEDEADYYCQSADSSGTYPVVFGGGTKLTVL
B5: ADI-19002 (antibody, V domains shown)
VH: EVQLVESGPGLVKPSETLSLTCTVSGGSVSGHYWSWIRQFPGKELEWIGHIYYIGTTNYNPSLKSRVIISLDTSKNQLSLKLSSVTAADTAVYYCARQFGYDKNTLSRLDFDYWGQGTLVTVSS
VL: DIQMTQSPSSLSASVRDRVTITCRASQSISSYLNWYQQRPGKAPKLLIYSAFSLHSGVPSRFSGSGSETEFTLTISSLQPDDFATYYCQQSYSIPWTFGQGTKVEIK
B6: ADI-19006 (antibody, V domains shown)
VH: EVQLVESGGGLVKPGESVKLSCAASGFTITDSYMAWIRQSPGKGLEWLAYISSTSLFTDYTDSVKGRFIITRDNAENSLYLQMTSLTPADTGVYFCARAKTSYYFYALDVWGPGTLVTVSS
VL: ETTLTQSPGTLSLSPGERATLSCRASQSVNNNYLAWFQHKPGQAPRLLIYNASNRAAGIPDRFSGSGSGTDFTLTISKLEPGDSAVYYCQRYGNSWPFGQGTKVEIK
B7: ADI-19009 (antibody, V domains shown)
VH: QVQLVQSGAEVKRPGSSVKVSCKASGGTFRGYHISWVRQAPGQGLEWMGGIIHLFGTVSYAPKFQGRVTITADASTGTAHMELSSLTSDDTAIYYCARDAYEVWTGSYLPPFDYWGQGTLVTVSS
VL: DIVMTQTPGTLSLSPGERVTLSCRASQTVTSSYLAWYQQKPGQAPRLLIYGAFTRATGIPDRFSGSGSGTDFTLTISRLEPEDFAVYYCQQYGSSFLTFGGGTKLEIK
B8: ADI-19003 (antibody, V domains shown)
VH: QVQLQESGPGLVKPSETLSLTCSVSGGSITNVNYYWGWIRQPPGKGLEWIGSIYYNGNTYYNPSLQSRVTMSVDTSKNHFSLRLTSVTAADTAVYFCAREGPNWELLNAFDIWGQGTTVTVSS
VL: SYELTQPPSVSVAPGQTARITCGGNNIGSKNVHWYQQKPGQAPVLVVYEDTHRPSGIPERFSGSNSGNTATLTISRVEAGDEADYYCQVWDTSSDHVVFGGGTKLTVL
B9: ADI-19008 (antibody, V domains shown)
VH: EVQLVESGGGVVQPGRSLRLSCVASGFSFSAYGMHWVRQVPTKGLEWVAVISYDGRDIYYTDSVKGRFTISRDNSKNMLYLQMNSLRPEDRAVYYCARDPSLGYNNHYFDYWGQGTLVTVSS
VL: EIVLTQSPATLSLSPGETATLSCRASQSVTGNLAWYQQKPGQAPRLLIYAASNRATGIPARFSGSGSGTDFTLTISSLEPEDFAVYFCQQRSNWPPMYSFGQGTKLEIK
B10: ADI-18997 (antibody, V domains shown)
VH: QVQLQQWGAGLLKPSETLSLTCAVSGGYFINDNWSWIRQSPGKGLEWIGEISHSGSTNYNPSLKSRLTISVDTSRQQFSLKLSSVTAADSGVYYCARVHPSYDFGWRFFDFWGQGTLVTVSS
VL: ETTLTQSPATLSVSPGDTATLSCRASQTISSNLAWYQQKPGQPPSLLIYGASNRATGIPDRFRGSGSGTEFTLTISSLQSEDFAVYYCQQYAYWPPYTFGQGTKVEIK
B11: ADI-18988 (antibody, V domains shown)
VH: EVQLVESGGGLVRPGGSLRLSCAASGFSLSSYGMSWVRQAPGKGLEWVSSITAGSSYINYADSVKGRFTISRDNAKSSLFLQMTSLRVEDTAVYFCVREAYASSSALYWFDPWGQGTLVTVSS
VL: QSVLTQPPSVSGAPGQRVTISCTGSSSNLGAGYVVHWYQQLPGTSPKLLIYGNTDRPSGVPDRFSGSKSGTSASLAISGLQAEDEADYYCQSYDSSLSGWVFGGGTKLTVL
B12: ADI-18991 (antibody, V domains shown)
VH: EVQLVESGPGLVKPSETLSLSCIVSGDSITSNDYYWSWIRQSPGKGLEWIGYIYHSGATFYTPSLRSRVTISTDRSKNQFSLRLSSVTAADTAVYYCASGPVGMATSNWFDPWGQGTLVTVSS
VL: QPVLTQPPSVSVAPGKTATLTCGGDIIRTNSVNWYQQKPGQAPVLIIYYDSDRPSGIPGRFSASNSGSAATLTISRVEAGDEADYYCQVWDSSTDYHVVFGGGTKLTVL
B13: ADI-19004 (antibody, V domains shown)
VH: QVQLVQSGAEVKKPGASVKVSCKTSGYTFSHFGVTWIRQAPGQGLEWLGWISAYNGNTDSADKLQGRLTMTTDTSTNTAYMELRSLRSDDTAVYYCARDPPASAAAMLDYWGQGTLVTVSS
VL: DIQMTQSPLSLAVTLGQPASISCRSSQGLEYTDGNTYLSWFQQRPGQSPRRLIYKVSNRDSGVPDRFSGSGAGTDFTLRISRVEAEDVGVYYCMQGTHGRGISFGPGTKVDIK
B14: ADI-18993 (antibody, V domains shown)
VH: EVQLVESGGGLVKPGGSLRLSCAASGFTLSSYAMNWVRQAPGKGLEWVSSISAGSSYIDYADSVKGRFTISRDNAKNSLYLQMNNLRAEDTALYYCAREVLPATAIGGAWLDPWGQGTLVTVSS
VL: QSVLTQPPSVSGAPGQTVTISCTGSSSNIGAGYDVHWYRQLPGTAPKLLIYSNNNRPSGVPDRFSGSKSDTSASLAITGLQAGDEADYYCQSYDISLSASYVFGTGTKVTVL
B15: ADI-19010 (antibody, V domains shown)
VH: EVQLVESGGGLVKPGGSLRLSCAASGFTFSSYSMNWVRQAPGKGLEWVSSISSSSSYIYYADSVKGRFTISRDNAKNSLYLQMNSLRAEDTAVYYCARDVQYSGYDSGYYFDYWGQGTLVTVSS
VL: B14 VL with S2P, T17R, R39Q, S52G, N54S, D70G, G83E, I95S, S100L
B16: ADI-19016 (antibody, V domains shown)
VH: QVQLVESGGGLVKPGGSLRLSCVASGFTFSSYAMNWVRQAPGKGLDWVSSISAGSNFIDDADSVKGRFTISRDNARNSLFLQMNSLRAEDTAVYYCARIGYSSAHHYQYYMDVWGTGTTVTVSS
VL: QSVLTQPPSVSGAPGQRVTISCTGSSSNIGAGYDVHWYQDLPGTAPKLLIYGNTNRPSGVPDRFSGSKSGASASLVITGLQAEDEADYYCQSYDKSLSGGYVFGTGTKVTVL
B17: ADI-18996 (antibody, V domains shown)
VH: QVQLVQSGAEVKRPGASVKVSCKASEYAFTAHYLHWVRQAPDQGLEWMGWISPKSGGTNYAQKFHGRVSMTSDTSISTVYMELSSLTSDDTAVYYCARSSLVGASPNFDFWGQGTLVTVSS
VL: QSVVTQPPSVSAAPGQRVTISCSGSSSNIGNNYVSWYQQLPGSTPKVLIYDNNQRPSGIPDRFSGSKSGTSATLAISGLQTGDEAVYYCGTWDASLSAAMVFGGGTKLTVL
B18: ADI-19011 (antibody, V domains shown)
VH: EVQLVESGGGVVQPGGSLRLSCAGSGFAFGSFAMHWVRQAPGKGLEWVAVISFDGKNTKYADSVKGRFTTSRDNSRNTLYLQMDSLRGDDTAIYYCATIRGIVAGLCDNWGQGTLVTVSS
VL: QPVLTQSSSDSASLGASVKLTCTLSSGHRNYIIAWHQQQPGKAPRFLMKVEGSGSFTMGSGVPDRFSGSSSGADRYLTISNLQSEDEADYYCEAWDFNTGGVFGGGTQLTVL
B19: ADI-18994 (antibody, V domains shown)
VH: QVQLVQSGAEVKKPGASVKVSCKASGYTFTNYGFSWVRQAPGQGLEWMGWILTHNGYTNYAQKFQDRVTMKTDTSTSTVYMELRSLRSVDTAVYYCARIGHVTAVAGAPPDYWGQGTLVTVSS
VL: QPVLTQPASVSGYQGQSITISCSGTSSDVGTYNLVSWYQQHPGKAPELMIYEGSKRPSGVSDRFSGSKSGNTASLTISGLQAEDEADYYCCSYVAGSTSVFGGGTKLTVL

What follows are binders tested against T1, RSV F subtype B, furin-cleaved ectodomain stabilized in the postfusion conformation (F ΔFP) (Respiratory syncytial virus subtype B) (assay: BLI, IgG on AHQ sensor, 100 nM antigen).
T1 construct: extracellular domain; Trimeric soluble antigen; also called Postfusion subtype B

Binder | Kd
B1 | 1.16 nM
B2 | 1.1 nM

The binders below were run against RSV F protein of subtype A (strain A2) on recombinant mKate-RSV virus (Respiratory syncytial virus subtype A …, UniProt P03420 26-574) (assay: cell-based or functional assay).

Binder | Neut IC50 (µg/ml) subtype A
B1 | > 10 µg/mL
B2 | > 10 µg/mL

What follows are binders tested against RSV F protein of subtype A (strain A2) on recombinant mKate-RSV (respiratory syncytial virus subtype A …, UniProt P03420 26-574) (assay: cell-based or functional assay).

Binder | Neut IC50 subtype A
B3 | 0.041 µg/mL
B4 | 1.56 µg/mL
B5 | 2.89 µg/mL
B6 | 4.89 µg/mL
B7 | 0.062 µg/mL
B8 | 0.047 µg/mL
B9 | 8.29 µg/mL
B10 | > 10 µg/mL
B11 | 0.089 µg/mL
B12 | 0.028 µg/mL
B13 | 0.02 µg/mL
B14 | 0.078 µg/mL
B15 | > 10 µg/mL
B16 | 0.052 µg/mL
B17 | > 10 µg/mL
B18 | > 10 µg/mL
B19 | 0.047 µg/mL

Each binder was assayed against RSV F protein of subtype B (18537) on recombinant mKate-RSV (respiratory syncytial virus subtype B …, UniProt P13843 26-574) (assay: cell-based or functional assay).

Binder | Neut IC50 subtype B
B3 | 0.11 µg/mL
B4 | 0.795 µg/mL
B5 | 4.51 µg/mL
B6 | 5.06 µg/mL
B7 | 0.066 µg/mL
B8 | 0.125 µg/mL
B9 | > 10 µg/mL
B10 | > 10 µg/mL
B11 | 0.37 µg/mL
B12 | 0.228 µg/mL
B13 | 0.128 µg/mL
B14 | 0.128 µg/mL
B15 | 0.65 µg/mL
B16 | 0.092 µg/mL
B17 | > 10 µg/mL
B18 | 6.24 µg/mL
B19 | 0.108 µg/mL

These binders were tested against RSV F protein of subtype B (18537) on recombinant mKate-RSV virus (Respiratory syncytial virus subtype B …, UniProt P13843 26-574) (assay: cell-based or functional assay).

Binder | Neut IC50 (µg/ml) subtype B
B1 | > 10 µg/mL
B2 | > 10 µg/mL

Source: patent US20200223906A1 (Adimab, published 2020)
